Measurements: publication PMC6753139, “TRIM66 reads unmodified H3R2K4 and H3K56ac to respond to DNA damage in embryonic stem cells” (Nature Communications, 2019)

What was measured:
ESCs [1] = experiment: survival with DNA repair inhibitors (HR, NHEJ); format: cell-based, mouse; details: TRIM66-depleted ESCs under EPI treatment with HR or NHEJ inhibitor
Excerpt: reagent (Fig. S9b, c). We further performed the competitive survival experiment through co-culturing the GFP-labeled wild-type ESCs and TRIM66 KO ESCs under EPI treatment, and our […]
was indeed required for ESC to survive DNA damage (Fig. S9d). […]
localization of γ-H2AX foci and HR repair related proteins (Rad51 and CtIP) or NHEJ repair related protein (DNA-PKcs) in ESCs (Fig. 5f, 5g, S11d, and S11e). We further applied two specific inhibitors (YU238259 and NU7441) to block HR and NHEJ repair respectively (Stachelek et al., […]
affect both HR and NHEJ repair pathways in ESCs (Fig. S11f). To better clarify the mechanisms of TRIM66 involved in the regulation of DNA damage, w e performed the immunofluorescence assay […]
to bind at DNA damage sites (Fig. S11a). […] We also analyzed the relevance of […]
depletion of TRIM66 disrupted the negative correlation of H3K56ac and γ-H2AX (Fig. 5d). In view of the recognition of TRIM66 and H3K56ac (Fig.2 and Fig. S10), we speculated that the loose winding of nucleosomal DNA nearby the DNA damage sites might expose H3K56ac to its reader TRIM66, while TRIM66 deficiency impeded the erasure of H3K56ac at DNA damage sites and the recruitment of DNA repair proteins. […]

ESCs [2] = experiment: survival analysis of ESCs treated with DNA-damaging agents; format: cell-based, mouse; details: TRIM66-depleted ESCs
Method: Furthermore, we performed competitive survival experiment through mixing the equal amount of TRIM66-KO ESCs and green fluorescent protein (GFP)-labeled WT ESCs (WT-GFP), then co-cultured for 5 days under EPI treatment.
For the culture of ESCs, the medium was changed every day and the cells were passaged every 2 days. The 293T cells were cultured in DMEM containing 10% fetal bovine serum. […]
a, The expression level of DNA damage related genes (Cdkn1a, Gadd45a, and p53) in WT and TRIM66 KO ESCs […]
assay c in WT and TRIM66 KO ESCs treated with EPI. e, Clonal competition assay of WT and TRIM66 KO ESCs treated with EPI in different days (day 1, 3, and 5). Representative images show the mixtures of WT-GFP and […] clones. Scale bar, 10 μm.* represents a difference from WT ESCs or GFP-negative ESC clones at day 1, # indicates a difference from GFP-positive ESC clones at day 1. Statistical significance is determined by two-tailed
(1 picture or pasted object on this page, not shown here)

TRIM66_(965-1160) E968A [3] = molecular target: T1, TRIM66_(965-1160) E968A (human, UniProt O15016 965-1160, E968A); experiment: ITC; MicroCal PEAQ-ITC, 25 °C, 20 mM Tris, 100 mM NaCl, pH 7.5; 0.7-4 mM peptide injected into the cell with 0.12 mM TRIM24-PHD-Bromo, 0.05 mM TRIM33 PHD-Bromo, or 0.05 or 0.11-[…] TRIM66-PHD-Bromo (or its mutants); single measurement, errors from the fitting curve
[4] = molecular target: TRIM66-WT_(965-1160) (PHD-Bromodomain) (human) (UniProt O15016); experiment: as above
TRIM66_(965-1160) N969A [5] = molecular target: T2, TRIM66_(965-1160) N969A (human, UniProt O15016 965-1160, N969A); experiment: as above
[6] = molecular target: TRIM66-MUT_(968-1160) (PHD-Bromodomain) (human) (UniProt O15016); experiment: as above
[7] = molecular target: T3, TRIM33_(882-1087) (PHD-Bromodomain) (human, UniProt Q9UPN9 882-1087); experiment: ITC; MicroCal PEAQ-ITC, 25 °C, 20 mM Tris, 100 mM NaCl, pH 7.5; 0.7-4 mM peptide injected into the cell with 0.12 mM TRIM24-PHD-Bromo, 0.05 mM TRIM33 PHD-Bromo, or 0.05 or 0.11-0.15 mM TRIM66-PHD-Bromo (or its mutants); single measurement, errors from the fitting curve; details: both partners purified
T3 construct: also called TRIM33 PHD-Bromo; source: E. coli BL21 (DE3), purified (Ni column, SUMO protease, second Ni column, Superdex 75)
T3 sequence (looked up): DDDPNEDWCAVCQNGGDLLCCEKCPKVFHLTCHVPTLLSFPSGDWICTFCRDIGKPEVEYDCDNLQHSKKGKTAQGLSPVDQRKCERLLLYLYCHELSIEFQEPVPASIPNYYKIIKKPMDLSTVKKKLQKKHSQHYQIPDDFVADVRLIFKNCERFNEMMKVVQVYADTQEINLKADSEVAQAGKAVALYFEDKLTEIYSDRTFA

[8] = molecular target: T4, TRIM24_(824-1006) (PHD-Bromodomain) (human, UniProt O15164 824-1006); experiment: as above; details: both partners purified
T4 construct: TRIM24 PHD-Bromodomain, Homo sapiens, residues 824-1006 of UniProt O15164 (Isoform long); also called TRIM24-PHD-Bromo; source: E. coli BL21 (DE3), purified (Ni column, SUMO protease, second Ni column, Superdex 75)
T4 sequence (looked up): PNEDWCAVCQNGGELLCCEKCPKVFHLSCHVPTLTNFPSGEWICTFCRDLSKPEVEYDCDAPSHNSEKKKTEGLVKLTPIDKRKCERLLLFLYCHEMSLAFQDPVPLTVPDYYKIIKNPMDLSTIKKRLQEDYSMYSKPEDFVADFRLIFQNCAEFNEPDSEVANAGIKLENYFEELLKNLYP

TRIM33_(882-1087) = molecular target: T5, TRIM33_(882-1087) (human, UniProt Q9UPN9 882-1087); experiment: ITC; 0.7–4 mM peptide injected into a cell with 0.05 or 0.11–0.15 mM TRIM66-PHD-Bromo (or its mutants), 0.12 mM TRIM24-PHD-Bromo or 0.05 mM TRIM33 PHD-Bromo; 25 °C; 20 mM Tris, 100 mM NaCl, pH 7.5; MicroCal PEAQ-ITC; single measurement; details: both partners purified
T5 construct: also called TRIM33 PHD-Bromo; TRIM33 PHD-Bromodomain; source: E. coli BL21 (DE3), purified (Ni-chelating column, SUMO protease, second nickel column, Superdex 75)
T5 sequence (looked up): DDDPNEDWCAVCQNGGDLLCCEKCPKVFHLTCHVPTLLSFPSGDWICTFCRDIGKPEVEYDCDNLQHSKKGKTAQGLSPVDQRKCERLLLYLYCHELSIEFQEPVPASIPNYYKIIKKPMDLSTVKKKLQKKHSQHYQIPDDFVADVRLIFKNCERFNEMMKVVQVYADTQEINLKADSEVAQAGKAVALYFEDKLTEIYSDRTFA

TRIM24_(824-1006) = molecular target: T6, TRIM24_(824-1006) (human, UniProt O15164 824-1006); experiment: as above; details: both partners purified
T6 construct: TRIM24, human, PHD-Bromodomain, residues 824-1006, amplified from a human bone marrow cDNA library, in pET-SUMO-28a (+); also called TRIM24-PHD-Bromo; TRIM24 PHD-Bromodomain; source: E. coli BL21 (DE3), purified (Ni-chelating column, SUMO protease, second nickel column, Superdex 75)
T6 sequence (looked up): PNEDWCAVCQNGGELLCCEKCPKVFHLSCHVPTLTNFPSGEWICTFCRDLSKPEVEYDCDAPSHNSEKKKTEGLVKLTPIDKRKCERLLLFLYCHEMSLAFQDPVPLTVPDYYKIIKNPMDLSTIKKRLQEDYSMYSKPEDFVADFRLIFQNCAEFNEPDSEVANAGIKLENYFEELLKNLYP

TRIM66_(965-1160) E968A [9] = molecular target: T1, TRIM66_(965-1160) E968A; experiment: ITC
Target sequence in this assay (O15016 1100-1295 E1103A): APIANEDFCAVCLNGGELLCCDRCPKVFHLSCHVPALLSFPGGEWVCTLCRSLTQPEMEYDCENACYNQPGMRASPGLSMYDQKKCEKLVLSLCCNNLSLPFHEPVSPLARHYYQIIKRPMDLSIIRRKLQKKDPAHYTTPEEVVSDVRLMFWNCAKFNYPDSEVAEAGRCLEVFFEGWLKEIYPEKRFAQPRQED

TRIM66_(965-1160) N969A [10] = molecular target: T2, TRIM66_(965-1160) N969A; experiment: ITC
Target sequence in this assay (O15016 1100-1295 N1104A): as the sequence (O15016 1100-1295 E1103A) above, with A4E, N5A counted along it

## YU238259
ESCs [1]
  survival rate of TRIM66-depleted ESCs (in words): significant decrease in the survival rate

## bleomycin
ESCs [2]
  survival of TRIM66-KO versus WT ESCs (in words): significantly impaired
ESCs [2]; listed as bleomycin
  survival of TRIM66-KO versus WT ESCs (in words): significantly reduced the survival rates

## O=c1cc(N2CCOCC2)oc2c(-c3cccc4c3sc3ccccc34)cccc12 [NU7441]
ESCs [1]
  survival rate of TRIM66-depleted ESCs (in words): significant decrease in the survival rate

B1: H3_(1-12) peptide (peptide, UniProt P68431 2-13, looked up)
peptide: ARTKQTARKSTG
notes: histone H3.1, Homo sapiens, residues 1-12; also called unH3_(1-12); unmodified H3_(1-12); source: synthetic peptide (GL Biochem)
TRIM66_(965-1160) E968A [3]
  Kd: 34.8 µM
  stoichiometry N: 1.04
[4]
  stoichiometry N: 0.96
TRIM66_(965-1160) N969A [5]
  Kd: 72.6 µM
  stoichiometry N: 0.84
[6]
  stoichiometry N: 1.12
[7]
  stoichiometry N: 1.06
[8]
  stoichiometry N: 0.92

B2: H3_(1-12) peptide, unmodified (peptide, UniProt P68431 2-13, looked up)
peptide: ARTKQTARKSTG
notes: histone H3, residues 1-12, unmodified; also called unH3_(1-12); unmodified H3_(1-12); source: synthetic peptide (GL Biochem, Shanghai)
TRIM33_(882-1087)
  Kd: 3.39 µM
TRIM24_(824-1006)
  Kd: 51.4 µM
TRIM66_(965-1160) E968A [9]
  Kd: 34.8 µM
TRIM66_(965-1160) N969A [10]
  Kd: 72.6 µM
